Substitutions are numbered along the chain they refer to.

B1: KRAS_G12V_A2_A1 (scFv)
scFv: DIQMTQSPSSLSASVGDRVTITCRASQDVNTAVAWYQQKPGKAPKLLIYSASFLYSGVPSRFSGSRSGTDFTLTISSLQPEDFATYYCQQWYSSPVTFGQGTKVEIKRTGGGSGGGGSGGGASEVQLVESGGGLVQPGGSLRLSCAASGFNINWANMHWVRQAPGKGLEWVAQISPPYDYTNYADSVKGRFTISADTSKNTAYLQMNSLRAEDTAVYYCSRSYSYYFDYWGQGTLVTVSS
B2: KRAS_G12V_A2_A5 (scFv)
scFv: B1 scFv with N153Y, A155S, N156H, Q173I, P176S, P177F, Y178E, D179G, N182Y, F227M
B3: KRAS_G12V_A2_C1 (scFv)
scFv: DIQMTQSPSSLSASVGDRVTITCRASQDVNTAVAWYQQKPGKAPKLLIYSASFLYSGVPSRFSGSRSGTDFTLTISSLQPEDFATYYCQQYYSRPVTFGQGTKVEIKRTGGGSGGGGSGGGASEVQLVESGGGLVQPGGSLRLSCAASGFNIYLHDMHWVRQAPGKGLEWVAQIIPAIDYTNYADSVKGRFTISADTSKNTAYLQMNSLRAEDTAVYYCSRRDGYYFDYWGQGTLVTVSS
B4: CTNNB_S45_FA3 c19 (scFv)
scFv: DIQMTQSPSSLSASVGDRVTITCRASQDVNTAVAWYQQKPGKAPKLLIYSAYFLYSGVPSRFSGSRSGTDFTLTISSLQPEDFATYYCQQIHYKPLTFGQGTKVEIKRTGGGSGGGGSGGGASEVQLVESGGGLVQPGGSLRLSCAASGFNVAWYSIHWVRQAPGKGLEWVAQVYGGSSYTYYADSVKGRFTISADTSKNTAYLQMNSLRAEDTAVYYCSRDFYSSGMDYWGQGTLVTVSS
B5: CTNNB_S45_FA3_c13 (scFv)
scFv: DIQMTQSPSSLSASVGDRVTITCRASQDVNTAVAWYQQKPGKAPKLLIYSAYFLYSGVPSRFSGSRSGTDFTLTISSLQPEDFATYYCQQIYTSPITFGQGTKVEIKRTGGGSGGGGSGGGASEVQLVESGGGLVQPGGSLRLSCAASGFNFITTGMHWVRQAPGKGLEWVARIGPGSDYTNYADSVKGRFTISADTSKNTAYLQMNSLRAEDTAVYYCSRYYYASALDYWGQGTLVTVSS
B6: CTNNB_S45_FA3 c17 (scFv)
scFv: DIQMTQSPSSLSASVGDRVTITCRASQDVNTAVAWYQQKPGKAPKLLIYSASFLYSGVPSRFSGSRSGTDFTLTISSLQPEDFATYYCQQQYAYTPITFGQGTKVEIKRTGGGSGGGGSGGGASEVQLVESGGGLVQPGGSLRLSCAASGFNVWSYGIHWVRQAPGKGLEWVAGVTPDGSYTYYADSVKGRFTISADTSKNTAYLQMNSLRAEDTAVYYCSRSYGWAMDYWGQGTLVTVSS
B7: CTNNB_S45_FA3_c14 (scFv)
scFv: DIQMTQSPSSLSASVGDRVTITCRASQDVNTAVAWYQQKPGKAPKLLIYSASFLYSGVPSRFSGSRSGTDFTLTISSLQPEDFATYYCQQRAYFPITFGQGTKVEIKRTGGGSGGGGSGGGASEVQLVESGGGLVQPGGSLRLSCAASGFNFSDYGMHWVRQAPGKGLEWVAMLIPASGYTNYADSVKGRFTISADTSKNTAYLQMNSLRAEDTAVYYCSRGWSYYMDYWGQGTLVTVSS
B8: CTNNB_S45F_A3_E10 (scFv)
scFv: DIQMTQSPSSLSASVGDRVTITCRASQDVNTAVAWYQQKPGKAPKLLIYSASFLYSGVPSRFSGSRSGTDFTLTISSLQPEDFATYYCQQSYYSPPTFGQGTKVEIKRTGGGSGGGASEVQLVESGGGLVQPGGSLRLSCAASGFNINNTYIHWVRQAPGKGLEWVASIYPTDGYTRYADSVKGRFTISADTSKNTAYLQMNSLRAEDTAVYYCSRTYYSYYSAMDVWGQGTLVTVSS
B9: KRAS_G12D_A3_D26 (scFv)
scFv: DIQMTQSPSSLSASVGDRVTITCRASQDVNTAVAWYQQKPGKAPKLLIYSASFLYSGVPSRFSGSRSGTDFTLTISSLQPEDFATYYCQQYAYSPLTFGQGTKVEIKRTGGGSGGGGSGGGASEVQLVESGGGLVQPGGSLRLSCAASGFNVSSYGMHWVRQAPGKGLEWVAFIAPRRDYTSYADSVKGRFTISADTSKNTAYLQMNSLRAEDTAVYYCSRKSSYYFDYWGQGTLVTVSS
B10: KRAS_G12D_A3_D12 (scFv)
scFv: DIQMTQSPSSLSASVGDRVTITCRASQDVNTAVAWYQQKPGKAPKLLIYSASFLYSGVPSRFSGSRSGTDFTLTISSLQPEDFATYYCQQSSSSPITFGQGTKVEIKRTGGGSGGGGSGGGASEVQLVESGGGLVQPGGSLRLSCAASGFNISGYGMHWVRQAPGKGLEWVAYLYGGSDYTNYADSVKGRFTISADTSKNTAYLQMNSLRAEDTAVYYCSRTVRYAFDYWGQGTLVTVSS
B11: KRAS_G12D_A3_D15 (scFv)
scFv: DIQMTQSPSSLSASVGDRVTITCRASQDVNTAVAWYQQKPGKAPKLLIYSASFLYSGVPSRFSGSRSGTDFTLTISSLQPEDFATYYCQQSSASPLTFGQGTKVEIKRTGGGSGGGGSGGGASEVQLVESGGGLVQPGGSLRLSCAASGFNVSSVGMHWVRQAPGKGLEWVAYIYGTSDYTYYADSVKGRFTISADTSKNTAYLQMNSLRAEDTAVYYCSRSSRYSMDYWGQGTLVTVSS
B12: KRAS_G12D_A3_c111 (scFv)
scFv: DIQMTQSPSSLSASVGDRVTITCRASQDVNTAVAWYQQKPGKAPKLLIYSASFLYSGVPSRFSGSRSGTDFTLTISSLQPEDFATYYCQQYMYSPVTFGQGTKVEIKRTGGGSGGGGSGGGASEVQLVESGGGLVQPGGSLRLSCAASGFNVSAYWMHWVRQAPGKGLEWVAQIYGGSGYTMYADSVKGRFTISADTSKNTAYLQMNSLRAEDTAVYYCSRTHSYWSAFDYWGQGTLVTVSS
B13: KRAS_G12D_A11_D18 (scFv)
scFv: DIQMTQSPSSLSASVGDRVTITCRASQDVNTAVAWYQQKPGKAPKLLIYSASFLYSGVPSRFSGSRSGTDFTLTISSLQPEDFATYYCQQYSYEPVTFGQGTKVEIKRTGGGSGGGGSGGGASEVQLVESGGGLVQPGGSLRLSCAASGFNVSGSQMHWVRQAPGKGLEWVARIPGWSGYTYYADSVKGRFTISADTSKNTAYLQMNSLRAEDTAVYYCSRGYSYFAMDYWGQGTLVTVSS
B14: KRAS_G12D_A11_D22 (scFv)
scFv: DIQMTQSPSSLSASVGDRVTITCRASQDVNTAVAWYQQKPGKAPKLLIYSASFLYSGVPSRFSGSRSGTDFTLTISSLQPEDFATYYCQQYEYYPMTFGQGTKVEIKRTGGGSGGGGSGGGASEVQLVESGGGLVQPGGSLRLSCAASGFNVMYSTMHWVRQAPGKGLEWVASIYSWSDYTYYADSVKGRFTISADTSKNTAYLQMNSLRAEDTAVYYCSRGYAHNSFDYWGQGTLVTVSS
B15: KRAS_G12D_A11_D21 (scFv)
scFv: DIQMTQSPSSLSASVGDRVTITCRASQDVNTAVAWYQQKPGKAPKLLIYSASFLYSGVPSRFSGSRSGTDFTLTISSLQPEDFATYYCQQYAYYSPVTFGQGTKVEIKRTGGGSGGGGSGGGASEVQLVESGGGLVQPGGSLRLSCAASGFNIYGQMMHWVRQAPGKGLEWVAFLSPFSGNTYYADSVKGRFTISADTSKNTAYLQMNSLRAEDTAVYYCSRNISYEQSSAFDYWGQGTLVTVSS
B16: KRAS G12V_A3_V12 (scFv)
scFv: DIQMTQSPSSLSASVGDRVTITCRASQDVNTAVAWYQQKPGKAPKLLIYSASFLYSGVPSRFSGSRSGTDFTLTISSLQPEDFATYYCQQASYYYPLTFGQGTKVEIKRTGGGSGGGGSGGGASEVQLVESGGGLVQPGGSLRLSCAASGFNISASGMHWVRQAPGKGLEWVADIHPLKPYTNYADSVKGRFTISADTSKNTAYLQMNSLRAEDTAVYYCSRYSSMYYYYFDYWGQGTLVTVSS
B17: KRAS G12V_A3_c122 (scFv)
scFv: DIQMTQSPSSLSASVGDRVTITCRASQDVNTAVAWYQQKPGKAPKLLIYSASFLYSGVPSRFSGSRSGTDFTLTISSLQPEDFATYYCQQGAYYRPFTFGQGTKVEIKRTGGGSGGGGSGGGASEVQLVESGGGLVQPGGSLRLSCAASGFNISYSYMHWVRQAPGKGLEWVATLLPYDGNTYYADSVKGRFTISADTSKNTAYLQMNSLRAEDTAVYYCSRAAYSSMDVWGQGTLVTVSS
B18: KRAS G12V_A3_c120 (scFv)
scFv: DIQMTQSPSSLSASVGDRVTITCRASQDVNTAVAWYQQKPGKAPKLLIYSASFLYSGVPSRFSGSRSGTDFTLTISSLQPEDFATYYCQQKSEYSPWTFGQGTKVEIKRTGGGSGGGGSGGGASEVQLVESGGGLVQPGGSLRLSCAASGFNIYRYGIHWVRQAPGKGLEWVAVLYPYGYSTSYADSVKGRFTISADTSKNTAYLQMNSLRAEDTAVYYCSRSYAYGYFAYWGQGTLVTVSS
B19: KRAS G12V_A3_c121 (scFv)
scFv: DIQMTQSPSSLSASVGDRVTITCRASQDVNTAVAWYQQKPGKAPKLLIYSASFLYSGVPSRFSGSRSGTDFTLTISSLQPEDFATYYCQQSGYIPFTFGQGTKVEIKRTGGGSGGGGSGGGASEVQLVESGGGLVQPGGSLRLSCAASGFNIYGTMMHWVRQAPGKGLEWVAQFKPDSYNTYYADSVKGRFTISADTSKNTAYLQMNSLRAEDTAVYYCSRGEVYHYYAFDYWGQGTLVTVSS

One experiment concerns the target KRAS wt(6-14) peptide … with HLA-A2 and b2M on peptide-pulsed T2 cells (human). The experiment can be described thus: flow cytometry, phage-displayed scFv on peptide-pulsed T2 cells (FIG. 5). A general note: A flow cytometer gives signals particle by particle.
Method: (§1) Cells were stained with 10 μL of precipitated phage per 100 μL of cells, washed and stained with rabbit anti-M13 antibody, then washed and stained with anti-Rabbit-PE antibody. Cells were stained with a live/dead Near-IR dye, washed, and analyzed by an LSRII flow cytometer.
(§2) The pulsed cells were pelleted, washed once in cold stain buffer (PBS containing 0.5% BSA, 2 mM EDTA, and 0.1% sodium azide), and resuspended in 100 μL of stain buffer. Phage staining was performed on ice with 10 uL (approximately 1×10⁹) phage for 1 hour in 100 uL total volume, followed by one 4 mL wash in cold stain buffer. Cells were then stained with 1 uL of rabbit anti-M13 antibody (Pierce, Rockford, Ill.) in 100 uL total volume on ice for 1 hour and washed once with 4 mL of cold stain buffer. Cells were stained with anti-rabbit-PE (Biolegend) on ice for 1 hour in 100 uL total volume, followed by incubation with LIVE/DEAD Fixable Near-IR Dead Cell Stain (Thermo Fisher) for 10 min at room temperature per manufacturer's instructions. Cells were washed once in 4 mL of stain buffer followed by resuspension in 300 uL of stain buffer before analysis. Stained cells were analyzed using an LSRII flow cytometer (Becton Dickinson, Mansfield, Mass.).
In the case of B1, the binding result is given as “no binding”. The same measure, in the same setting: the result for B2 reads “no binding”; that for B3, “no binding”.

The target of a further experiment is CTNNB wt(41-49) peptide … with HLA-A3 and b2M on peptide-pulsed T2A3 cells (human). In words: flow cytometry, phage-displayed scFv on peptide-pulsed T2A3 cells (FIG. 12).
Method: (§3) Cells were stained with 10 of precipitated phage per 100 μL of cells, washed and stained with rabbit anti-M13 antibody, then washed and stained with anti-Rabbit-PE antibody. Cells were stained with a live/dead Near-IR dye, washed, and analyzed by an LSRII flow cytometer.
as §2
As to B4, the binding result is given as “no binding”. For B5, the binding result is on record as “no binding”. On the same count and under the same terms, the result for B6 reads “no binding”. On the same count and under the same terms, the result for B7 reads “no binding”.

Take B8: the binding result is reported as “no binding”.

The next experiment concerns the target T1, KRAS wt(7-16) peptide … with HLA-A3 and b2M on cells (human).
T1 construct: peptide-pulsed T2A3 cells in flow cytometry
The experiment can be described thus: flow cytometry, phage-displayed scFv on peptide-pulsed T2A3 cells (FIG. 8).
Method: as §1, §2
With B9, the binding result is “no binding”. The same measure, in the same setting: the result for B10 reads “no binding”; that for B11, “no binding”. Still for that read-out and setting: then B12, with “no binding”.

A further experiment concerns the target KRAS wt(7-16) peptide … with HLA-A11 and b2M on peptide-pulsed Hs611.T cells (human). The experiment can be described thus: flow cytometry, phage-displayed scFv on peptide-pulsed Hs611.T cells (FIG. 9).
Method: as §3, §2
As for B13, the binding result is “no binding”. Same read-out and setting: then B14, with “no binding”. The same measure, in the same setting: then B15, with “no binding”.

A further experiment concerns the target T1, KRAS wt(7-16) peptide … with HLA-A3 and …. In words: flow cytometry, phage-displayed scFv on peptide-pulsed T2A3 cells (FIG. 7).
Method: as §2
Take B16: the binding result is “no binding”. Consider B17, for which the binding result was “no binding”. On to B18, for which the binding result was “no binding”. For B19, the binding result was “no binding”.

The values are drawn from patent publication US20200079854A1 (Johns Hopkins, published 2020).
